# ± gives the uncertainty stated by the source.
# B1: Transcription factor SOX-4, residues 60 to 127; numbered along this chain, Q06945 (parent)
# chain: KRPMNAFMVWSQIERRKIMEQSPDMHNAEISKRLGKRWKLLKDSDKIPFIREAERLRLKHMADYPDYK
# Variants of: B1
# Assay: abundance fitness (aPCA) (normalised: wild type 0, dead -1); higher = more abundant; growth selection in yeast, the domain comes from the species named
# Conditions: Homo sapiens
row,Variant,abundance fitness
1,D63I,-0.181 ± 0.045
2,Y67C,-0.04 ± 0.15
3,Y67K,0.116 ± 0.11
4,Y67F,0.259 ± 0.25
5,Y67M,-0.069 ± 0.093
6,K36R,-0.075 ± 0.061
7,K36C,-0.482 ± 0.28
8,K36I,0.143 ± 0.36
9,D45R,-0.74 ± 0.094
10,D45S,-0.431 ± 0.089
11,D45Y,-0.361 ± 0.21
12,D45M,-0.395 ± 0.14
13,D45A,-0.239 ± 0.071
14,D45T,-0.576 ± 0.11
15,D45C,-0.758 ± 0.25
16,D45K,-0.486 ± 0.33
17,D45Q,-0.097 ± 0.16
18,K59Y,-0.277 ± 0.053
19,K59F,-0.321 ± 0.054
20,K59D,-0.13 ± 0.054
21,K59M,-0.048 ± 0.055

row,Variant,abundance fitness
1,K59E,-0.017 ± 0.046
2,K59N,-0.118 ± 0.061
3,H26C,0.127 ± 0.084
4,H26E,0.024 ± 0.095
5,H26I,-0.088 ± 0.11
6,H26A,0.113 ± 0.07
7,W38M,-0.985 ± 0.11
8,W38F,-1.08 ± 0.16
9,W38G,-0.744 ± 0.05
10,D66E,0.102 ± 0.085
11,D66V,-0.157 ± 0.049
12,D66K,-0.11 ± 0.082
13,D66Y,-0.537 ± 0.26
14,D66T,-0.216 ± 0.069
15,M8F,-0.133 ± 0.041
16,M8I,-0.181 ± 0.044
17,M8W,-0.204 ± 0.055
18,M8S,-0.072 ± 0.037
19,Q21S,-0.163 ± 0.064
20,Q21Y,-0.63 ± 0.26
21,Q21D,-0.346 ± 0.1

row,Variant,abundance fitness
1,Q21H,-0.282 ± 0.11
2,Q21R,-0.267 ± 0.066
3,Q21A,-0.169 ± 0.065
4,Q21E,-0.062 ± 0.12
5,S31Q,-0.038 ± 0.078
6,S31D,0.154 ± 0.04
7,S31F,-0.212 ± 0.043
8,S31V,-0.021 ± 0.034
9,S31L,-0.045 ± 0.041
10,K46T,-0.694 ± 0.06
11,K46I,-0.553 ± 0.072
12,K39A,0.093 ± 0.063
13,K39M,-0.144 ± 0.036
14,K39E,0.057 ± 0.08
15,K39P,-0.783 ± 0.2
16,K39N,-0.19 ± 0.045
17,P65S,0.102 ± 0.062
18,P65I,-0.333 ± 0.15
19,P65Q,0.042 ± 0.063
20,P48R,-0.4 ± 0.055
21,P48E,-0.189 ± 0.049

row,Variant,abundance fitness
1,P48W,-0.493 ± 0.069
2,P48I,-0.089 ± 0.08
3,P48C,-0.504 ± 0.084
4,P48G,-0.51 ± 0.042
5,R16S,-0.174 ± 0.041
6,R16P,-0.234 ± 0.066
7,R16Y,-0.416 ± 0.06
8,R16T,-0.077 ± 0.049
9,M25R,-0.591 ± 0.068
10,M25C,-0.258 ± 0.1
11,M25S,-0.416 ± 0.086
12,M25D,-0.397 ± 0.091
13,M25G,-0.713 ± 0.092
14,M25E,-0.323 ± 0.093
15,M25Q,-0.595 ± 0.15
16,K42C,-0.28 ± 0.2
17,K42S,0.13 ± 0.053
18,K42D,-0.274 ± 0.16
19,K42M,-0.465 ± 0.1
20,A62W,-0.249 ± 0.054
